Measured values reported in patent publication US20230183352A1 (published 2023).

The binders below were run against T1, Claudin 18.2 (CLDN18.2), expressed on CHOS-CLDN 18.2 / HEK293-CLDN 18.2 / HCC827-CLDN 18.2 cells (human, UniProt P56856 1-261) (assay: ELISA).

Binder | EC50
QP14641461 (antibody, V domains shown) VH: EVQLVQSGAEVKKPGASVKVSCKASGYTFTSYIMHWVRQAPGQGLEWIGYINPYNDGTKYNEKFKGRVTLTRDKSTSTVYMELSSLRSEDTAVYYCARLGFTTRNAMDYWGQGTLVTVSS VL: DIVMTQSPDSLAVSLGERATINCKSSQSLLNSGNQKNYLAWYQQKPGQPPKLLIYGASTRESGVPDRFTGSGSGTDFTLTISSLQAEDVAVYYCQNDHSYPFTFGQGTKLEIKR | 0.0783 mg/L
QP14651460 (antibody, V domains shown) VH: EVQLVQSGAEVKKPGASVKVSCKASGYTFTSYIMHWVRQAPGQGLEWIGYINPYNDGTKYNEKFKGRVTLTSDKSTSTVYMELSSLRSEDTAVYYCARLGFTTRNAMDYWGQGTLVTVSS VL: DIVMTQSPDSLAVSLGERATINCKSSQSLLNSGNQKNYLAWYQQKPGQPPKLLIYGASTRESGVPDRFSGSGSGTDFTLTISSLQAEDVAVYYCQNDHSYPFTFGQGTKLEIKR | 0.0904 mg/L

Target: T1, Claudin 18.2 (CLDN18.2), expressed on …
Assay: ELISA
Remark: another data set of the same source

Binder | EC50
QP14441441 (antibody, V domains shown) VH: QVQLVQSGAEVKKPGASVKVSCKASGYAFSSYWMNWVRQAPGQGLEWIGQIYPGNGDTTYNGKFKGRVTMTADKSTSTVYMELSSLRSEDTAVYYCARFVKGNAMDYWGQGTLVTVSS VL: DIVMTQSPDSLAVSLGERATISCKSSQSLLNSGNQKNYLTWYQQKPGQPPKLLIYWASTRESGVPDRFSGSGSGIDFTLTISSVQAEDVAVYYCQNAYSYPFTFGQGTKLEIKR | 0.106 mg/L
QP14451442 (antibody, V domains shown) VH: QVQLVQSGAEVKKPGASVKVSCKASGYAFSSYWMNWVRQAPGQGLEWIGQIYPGNGDTTYNGKFKGRVTMTADKSTSTVYMELSSLRSEDTAVYFCARFVKGNAMDYWGQGTLVTVSS VL: DIVMTQSPDSLAVSLGERATISCKSSQSLLNSGNQKNYLTWYQQKPGQPPKMLIYWASTRESGVPDRFSGSGSGIDFTLTISSVQAEDVAVYYCQNAYSYPFTFGQGTKLEIKR | 0.0977 mg/L
QP14451440 (antibody, V domains shown) VH: QVQLVQSGAEVKKPGASVKVSCKASGYAFSSYWMNWVRQAPGQGLEWIGQIYPGNGDTTYNGKFKGRVTMTADKSTSTVYMELSSLRSEDTAVYFCARFVKGNAMDYWGQGTLVTVSS VL: DIVMTQSPDSLAVSLGERATISCKSSQSLLNSGNQKNYLTWYQQKPGQPPKLLIYWASTRESGVPDRFSGSGSGTDFTLTISSLQAEDVAVYYCQNAYSYPFTFGQGTKLEIKR | 0.0995 mg/L

The binders below were run against T1, Claudin 18.2 (CLDN18.2), expressed on … (assay: cell ELISA).

Binder | EC50
QP14381435 (antibody, V domains shown) VH: EVQLVESGGGLVKPGGSLRLSCAASGFTFSNYAMSWVRQAPGKRLEWVASIISGGRTYYLDSEKGRFTISRDNAKNSLYLQMNSLRAEDTAVYYCTRIYYGNSFDYWGQGTLVTVSS VL: DIVMTQSPDSLAVSLGERATISCKSSQSLLNSGNQKNYLTWYQQKPGQPPKLLIYWASTRESGVPDRFTGSGSGTDFTLTISSLQAEDVAVYYCQNDYSYPFTFGQGTKLEIK | 0.196 mg/L
QP14631460 (antibody, V domains shown) VH: QVQLVQSGAEVKKPGASVKVSCKASGYTFTSYIMHWVRQAPGQGLEWMGYINPYNDGTKYNEKFKGRVTMTRDTSTSTVYMELSSLRSEDTAVYYCARLGFTTRNAMDYWGQGTLVTVSS VL: DIVMTQSPDSLAVSLGERATINCKSSQSLLNSGNQKNYLAWYQQKPGQPPKLLIYGASTRESGVPDRFSGSGSGTDFTLTISSLQAEDVAVYYCQNDHSYPFTFGQGTKLEIK | 0.135 mg/L
QP14361434 (antibody, V domains shown) VH: EVQLVESGGGLVKPGGSLRLSCAASGFTFSNYAMSWVRQAPGKGLEWVSSIISGGRTYYLDSEKGRFTISRDNAKNSLYLQMNSLRAEDTAVYYCTRIYYGNSFDYWGQGTLVTVSS VL: DIVMTQSPDSLAVSLGERATISCKSSQSLLNSGNQKNYLTWYQQKPGQPPKLLIYWASTRESGVPDRFSGSGSGTDFTLTISSLQAEDVAVYYCQNDYSYPFTFGQGTKLEIK | 0.17 mg/L
QP14361435 (antibody, V domains shown) VH: EVQLVESGGGLVKPGGSLRLSCAASGFTFSNYAMSWVRQAPGKGLEWVSSIISGGRTYYLDSEKGRFTISRDNAKNSLYLQMNSLRAEDTAVYYCTRIYYGNSFDYWGQGTLVTVSS VL: DIVMTQSPDSLAVSLGERATISCKSSQSLLNSGNQKNYLTWYQQKPGQPPKLLIYWASTRESGVPDRFTGSGSGTDFTLTISSLQAEDVAVYYCQNDYSYPFTFGQGTKLEIKR | 0.109 mg/L
QP14371435 (antibody, V domains shown) VH: EVQLVESGGGLVKPGGSLRLSCAASGFTFSNYAMSWVRQAPGKGLEWVASIISGGRTYYLDSEKGRFTISRDNAKNSLYLQMNSLRAEDTAVYYCTRIYYGNSFDYWGQGTLVTVSS VL: DIVMTQSPDSLAVSLGERATISCKSSQSLLNSGNQKNYLTWYQQKPGQPPKLLIYWASTRESGVPDRFTGSGSGTDFTLTISSLQAEDVAVYYCQNDYSYPFTFGQGTKLEIKR | 0.134 mg/L

Next, values leading:

EC50 | Binder
0.119 mg/L | QP207208 (antibody, V domains shown) VH: EVQLQQSGPELVKPGASVKMSCKASGYTFTSYIMHWVKQKPGQGLEWIGYINPYNDGTKYNEKFKGKATLTSDKSSSTVYMELSSLTSEDSAVYCCARLGFTTRNAMDYWGQGTSVTVSS VL: DIVMTQSPSSLSVSAGEKVTMNCKSSQSLLNSGNQKNYLAWYQQKPGQPPKLLIYGASTRESGVPDRFTGSGSGTDFTLTISSVQAEDLAVYYCQNDHSYPFTFGSGTKLEIK
0.112 mg/L | QP14361433 (antibody, V domains shown) VH: EVQLVESGGGLVKPGGSLRLSCAASGFTFSNYAMSWVRQAPGKGLEWVSSIISGGRTYYLDSEKGRFTISRDNAKNSLYLQMNSLRAEDTAVYYCTRIYYGNSFDYWGQGTLVTVSS VL: DIVMTQSPDSLAVSLGERATINCKSSQSLLNSGNQKNYLTWYQQKPGQPPKLLIYWASTRESGVPDRFSGSGSGTDFTLTISSLQAEDVAVYYCQNDYSYPFTFGQGTKLEIK
0.284 mg/L | QP14371434 (antibody, V domains shown) VH: EVQLVESGGGLVKPGGSLRLSCAASGFTFSNYAMSWVRQAPGKGLEWVASIISGGRTYYLDSEKGRFTISRDNAKNSLYLQMNSLRAEDTAVYYCTRIYYGNSFDYWGQGTLVTVSS VL: DIVMTQSPDSLAVSLGERATISCKSSQSLLNSGNQKNYLTWYQQKPGQPPKLLIYWASTRESGVPDRFSGSGSGTDFTLTISSLQAEDVAVYYCQNDYSYPFTFGQGTKLEIK
0.108 mg/L | QP14371433 (antibody, V domains shown) VH: EVQLVESGGGLVKPGGSLRLSCAASGFTFSNYAMSWVRQAPGKGLEWVASIISGGRTYYLDSEKGRFTISRDNAKNSLYLQMNSLRAEDTAVYYCTRIYYGNSFDYWGQGTLVTVSS VL: DIVMTQSPDSLAVSLGERATINCKSSQSLLNSGNQKNYLTWYQQKPGQPPKLLIYWASTRESGVPDRFSGSGSGTDFTLTISSLQAEDVAVYYCQNDYSYPFTFGQGTKLEIKR
0.145 mg/L | QP14381434 (antibody, V domains shown) VH: EVQLVESGGGLVKPGGSLRLSCAASGFTFSNYAMSWVRQAPGKRLEWVASIISGGRTYYLDSEKGRFTISRDNAKNSLYLQMNSLRAEDTAVYYCTRIYYGNSFDYWGQGTLVTVSS VL: DIVMTQSPDSLAVSLGERATISCKSSQSLLNSGNQKNYLTWYQQKPGQPPKLLIYWASTRESGVPDRFSGSGSGTDFTLTISSLQAEDVAVYYCQNDYSYPFTFGQGTKLEIK
0.178 mg/L | QP190191 (antibody, V domains shown) VH: EVKLVESGGGLVKPGGSLKLSCAASGFTFSNYAMSWVRQTPEKRLEWVASIISGGRTYYLDSEKGRFTISRDNARNNLYLQMSSLRSEDTAMYYCTRIYYGNSFDYWGQGTTLTVSS VL: DIVMTQSPSSQTVTAGEKVTMSCKSSQSLLNSGNQKNYLTWYQQKPGQPPKLLIYWASTRESGVPDRFTGSGSGTDFTLTISNMQAEDLAVYYCQNDYSYPFTFGSGTKLEIK

Target: T1, Claudin 18.2 (CLDN18.2), expressed on …
Assay: cell ELISA
Remark: another data set of the same source

Binder | EC50
QP207208 (antibody, V domains shown) VH: EVQLQQSGPELVKPGASVKMSCKASGYTFTSYIMHWVKQKPGQGLEWIGYINPYNDGTKYNEKFKGKATLTSDKSSSTVYMELSSLTSEDSAVYCCARLGFTTRNAMDYWGQGTSVTVSS VL: DIVMTQSPSSLSVSAGEKVTMNCKSSQSLLNSGNQKNYLAWYQQKPGQPPKLLIYGASTRESGVPDRFTGSGSGTDFTLTISSVQAEDLAVYYCQNDHSYPFTFGSGTKLEIK | 0.179 mg/L
